Changes are numbered by the printed parent chain.

As usually defined, the Kd is the equilibrium constant for the complex coming apart. A lower Kd goes with higher affinity.

The target of data set [1] is T1, Hel308 (ssHel308) wild type (Sulfolobus solfataricus PBL2025, UniProt D0KN27 8-715).
T1 sequence: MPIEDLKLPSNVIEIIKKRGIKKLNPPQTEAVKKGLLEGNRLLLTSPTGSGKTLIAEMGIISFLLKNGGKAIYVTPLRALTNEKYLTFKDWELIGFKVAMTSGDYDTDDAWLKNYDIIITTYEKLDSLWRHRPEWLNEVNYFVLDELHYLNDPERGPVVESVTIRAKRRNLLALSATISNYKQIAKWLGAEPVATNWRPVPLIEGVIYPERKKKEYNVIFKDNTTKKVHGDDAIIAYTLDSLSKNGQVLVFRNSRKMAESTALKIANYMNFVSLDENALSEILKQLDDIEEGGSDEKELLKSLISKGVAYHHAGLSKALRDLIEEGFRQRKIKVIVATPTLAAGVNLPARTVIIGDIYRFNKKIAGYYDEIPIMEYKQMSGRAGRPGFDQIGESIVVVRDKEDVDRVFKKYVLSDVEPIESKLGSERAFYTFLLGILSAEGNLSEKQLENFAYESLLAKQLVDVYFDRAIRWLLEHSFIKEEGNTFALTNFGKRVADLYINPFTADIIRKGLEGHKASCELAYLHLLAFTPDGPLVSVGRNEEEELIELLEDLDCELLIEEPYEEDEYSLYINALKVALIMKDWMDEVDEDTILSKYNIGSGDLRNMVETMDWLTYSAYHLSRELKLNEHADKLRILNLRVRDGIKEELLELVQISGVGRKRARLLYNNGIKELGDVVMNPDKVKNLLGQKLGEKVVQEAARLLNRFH
The data set can be described thus: fluorescence anisotropy. A general note: Fluorescence polarisation rises when a labelled molecule tumbles more slowly, as on binding a larger partner.

Data set [2] addresses T1, Hel308 (ssHel308) wild type. The data set can be described thus: competition.
The target of data set [3] is T2, Hel308 K52A (Sulfolobus solfataricus PBL2025, UniProt D0KN27 8-715, K59A).
T2 sequence: T1 sequence with K52A
The data set can be described thus: fluorescence anisotropy.

The target in data set [4] is T3, Hel308 R255A (Sulfolobus solfataricus PBL2025, UniProt D0KN27 8-715, R262A).
T3 sequence: T1 sequence with R255A
The data set can be described thus: fluorescence anisotropy.

Data set [5] has as its target T4, Hel308 R662A (Sulfolobus solfataricus PBL2025, UniProt D0KN27 8-715, R669A).
T4 sequence: T1 sequence with R662A
The data set can be described thus: fluorescence anisotropy.

B1: 15T/15A duplex, 5'-fluorescein on 15T (dsDNA)
DNA 1: TTTTTTTTTTTTTTT
DNA 2: AAAAAAAAAAAAAAA
The molecule B1 gave a dissociation constant (Kd) in data set [1] of 5300 nM.

The molecule TTTTTTTTTTTTTTT (ssDNA) [15T ssDNA, unlabelled competitor] showed a Kd in data set [2] of 130 nM.

For TTTTTTTTTTTTTTT (ssDNA) [15T ssDNA, 5'-fluorescein], the binding result in data set [3] and in data set [5] was “binds” in each case. In data set [4], the binding signal is 25 fold increase in Kd vs wild type. In addition, the dissociation constant Kd in data set [1] came to 140 nM.

The values are drawn from publication PMC3434800.
